Data from patent US20180289802A1 (CELGENE, published 2018).
Changes are numbered by the printed parent chain. Values belong to the binder of their own block, whether it stands above or below them.

Columns and labels:
[1] = biological target: T1, human PD-1 expressed on cells (human, UniProt Q15116 25-198); experiment: cell-based or functional assay
[2] = biological target: T1, human PD-1 expressed on cells; experiment: competition with DyL650-PD-L1 for binding to cell surface human PD-1 (CHO), flow cytometry
[3] = biological target: T2, human PD-1 (soluble / purified antigen, construct not stated) (human, UniProt Q15116 25-170, limits assumed); experiment: Biacore (SPR), n = 4; Biacore, n = 4 (not KinExA 575 pM)
T2 construct: also called soluble antigen
T2 sequence (Q15116 25-170 limits assumed): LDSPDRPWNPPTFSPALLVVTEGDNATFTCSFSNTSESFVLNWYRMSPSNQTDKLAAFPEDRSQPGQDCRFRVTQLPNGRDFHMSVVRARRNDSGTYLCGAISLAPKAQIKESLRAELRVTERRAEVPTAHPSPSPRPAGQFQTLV

[4] = biological target: T1, human PD-1 expressed on cells; experiment: cell-based or functional assay; remark: listed apart in the source
[5] = biological target: T1, human PD-1 expressed on cells; experiment: cell-based or functional assay; remark: listed apart in the source
[6] = biological target: T2, human PD-1 (soluble / purified antigen, …); experiment: KinExA, n = 2
[7] = biological target: T2, human PD-1 (soluble / purified antigen, …); experiment: Biacore (SPR), n = 2
[8] = biological target: T2, human PD-1 (soluble / purified antigen, …); experiment: KinExA, n = 1
murine PD-1 = biological target: T3, murine PD-1 (mouse, UniProt Q02242 25-167, limits assumed); experiment: assay not described; stated in the discussion of the crystal structure
T3 construct: also called mouse PD-1
T3 sequence (looked up): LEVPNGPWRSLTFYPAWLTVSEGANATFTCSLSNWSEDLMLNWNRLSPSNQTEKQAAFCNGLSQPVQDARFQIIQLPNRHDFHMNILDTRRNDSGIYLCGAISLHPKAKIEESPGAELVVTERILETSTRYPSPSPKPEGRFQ

T1 sequence (Q15116 25-198 limits assumed): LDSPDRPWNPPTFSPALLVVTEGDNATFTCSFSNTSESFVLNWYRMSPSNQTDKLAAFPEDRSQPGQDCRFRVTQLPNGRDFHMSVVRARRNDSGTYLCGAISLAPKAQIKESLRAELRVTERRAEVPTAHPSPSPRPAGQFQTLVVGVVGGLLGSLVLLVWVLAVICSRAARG

B1: PD1AB-1 (antibody, V domains shown)
VH: EVQLVQSGAEVKKPGATVKISCKVSGFNIKDTYMHWVQQAPGKGLEWMGRIDPANGDRKYDPKFQGRVTITADTSTDTAYMELSSLRSEDTAVYYCARSGPVYYYGSSYVMDYWGQGTTVTVSS
VL: DIVMTQSPDSLAVSLGERATINCKSGQSVLYSSNQKNFLAWYQQKPGQPPKLLIYWASTRESGVPDRFSGSGSGTDFTLTISSLQAEDVAVYYCHQYLYSWTFGQGTKLEIKR
notes: also called parental clone PD1AB-1; HC/LC TOPO vector 3015/3017
IFN-γ EC50, PBMC reactivation assay [1]: 46 nM
IFN-γ EC75, PBMC reactivation assay [1]: 85 nM
IL-2 EC50, PBMC reactivation assay [1]: 21 nM
IL-2 EC75, PBMC reactivation assay [1]: 40 nM
IL-17 EC50, PBMC reactivation assay [1]: 41 nM
IL-17 EC75, PBMC reactivation assay [1]: 65 nM
IC50 [2]: > 100 nM
Kd [3]: 5 nM
CD4+ T cell IL-2 inhibition (EC50) [4]: 22 nM
IL-2 EC50, human whole blood assay [5]: 8.3 nM
hIFN-γ EC50, human whole blood assay [5]: 5.9 nM
hIL-17 EC50, human whole blood assay [5]: 7.2 nM
Kd [6]: 0.575 nM

B2: PD1AB-2 (antibody, V domains shown)
VH: B1 VH
VL: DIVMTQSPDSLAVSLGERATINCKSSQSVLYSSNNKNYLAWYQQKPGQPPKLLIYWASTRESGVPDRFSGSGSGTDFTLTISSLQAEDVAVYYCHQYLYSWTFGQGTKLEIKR
notes: also called HC/LC TOPO vector 3015/3193
IFN-γ EC50, PBMC reactivation assay [1]: 58 nM
IFN-γ EC75, PBMC reactivation assay [1]: 91 nM
IL-2 EC50, PBMC reactivation assay [1]: 24 nM
IL-2 EC75, PBMC reactivation assay [1]: 42 nM
IL-17 EC50, PBMC reactivation assay [1]: 36 nM
IL-17 EC75, PBMC reactivation assay [1]: 59 nM
IC50 [2]: > 100 nM
Kd [7]: 5 nM
CD4+ T cell IL-2 inhibition (EC50) [4]: 27 nM
Kd [8]: 0.425 nM
IL-2 EC50, human whole blood assay [5]: 8.4 nM
hIFN-γ EC50, human whole blood assay [5]: 7.6 nM
hIL-17 EC50, human whole blood assay [5]: 8.9 nM

B4: PD1AB-3 (antibody, V domains shown)
VH: B1 VH with D77N
VL: B1 VL with S83N
notes: also called HC/LC TOPO vector 3653/3646
IL-2 EC50, PBMC reactivation assay [1]: 24 nM
IL-2 EC75, PBMC reactivation assay [1]: 46 nM
IC50 [2]: > 100 nM
Kd [7]: 7 nM
CD4+ T cell IL-2 inhibition (EC50) [4]: 21 nM
Kd [8]: 0.35 nM

Other lines, results leading:

IFN-γ EC50, PBMC reactivation assay [1]: 34 nM
IFN-γ EC75, PBMC reactivation assay [1]: 64 nM
IL-2 EC50, PBMC reactivation assay [1]: 20 nM
IL-2 EC75, PBMC reactivation assay [1]: 39 nM
IL-17 EC50, PBMC reactivation assay [1]: 27 nM
IL-17 EC75, PBMC reactivation assay [1]: 52 nM
IC50 [2]: > 100 nM
Kd [7]: 6 nM
CD4+ T cell IL-2 inhibition (EC50) [4]: 23 nM
Kd [8]: 0.5 nM
IL-2 EC50, human whole blood assay [5]: 10.2 nM
hIFN-γ EC50, human whole blood assay [5]: 9.2 nM
hIL-17 EC50, human whole blood assay [5]: 9.9 nM
B3: PD1AB-4 (antibody, V domains shown)
VH: B1 VH with D77N
VL: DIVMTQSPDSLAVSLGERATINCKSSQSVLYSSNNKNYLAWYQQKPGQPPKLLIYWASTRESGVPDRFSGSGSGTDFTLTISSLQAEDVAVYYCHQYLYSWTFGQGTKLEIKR
notes: also called HC/LC TOPO vector 3653/3193

IFN-γ EC50, PBMC reactivation assay [1]: 36 nM
IFN-γ EC75, PBMC reactivation assay [1]: 67 nM
IL-2 EC50, PBMC reactivation assay [1]: 24 nM
IL-2 EC75, PBMC reactivation assay [1]: 33 nM
IL-17 EC50, PBMC reactivation assay [1]: 37 nM
IL-17 EC75, PBMC reactivation assay [1]: 56 nM
IC50 [2]: > 100 nM
binding result (murine PD-1): no binding
Kd [7]: 6 nM
CD4+ T cell IL-2 inhibition (EC50) [4]: 16 nM
Kd [8]: 0.45 nM
IL-2 EC50, human whole blood assay [5]: 4 nM
hIFN-γ EC50, human whole blood assay [5]: 4.1 nM
hIL-17 EC50, human whole blood assay [5]: 3.6 nM
B5: PD1AB-6 (antibody, IgG1, V domains shown)
VH: B1 VH with V24A
VL: B1 VL
notes: also called HC/LC TOPO vector 3650/3017

IL-2 EC50, PBMC reactivation assay [1]: 36 nM
IL-2 EC75, PBMC reactivation assay [1]: 58 nM
IC50 [2]: > 100 nM
Kd [7]: 6 nM
CD4+ T cell IL-2 inhibition (EC50) [4]: 15 nM
Kd [8]: 0.4 nM
B6: PD1AB-5 (antibody, V domains shown)
VH: B1 VH with V24A
VL: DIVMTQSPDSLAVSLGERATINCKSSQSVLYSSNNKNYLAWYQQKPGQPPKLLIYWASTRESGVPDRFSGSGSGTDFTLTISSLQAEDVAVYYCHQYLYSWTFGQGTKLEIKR
notes: also called HC/LC TOPO vector 3650/3193
